From patent publication US7183091B2, “Sulfite reductase, the process for producing the same and the use thereof” (Nugen Bioscience (Taiwan) Co., Ltd., priority 2003, dated 2007) come the findings set out here.

Data set [1] can be described thus: Determination of sulfite reductase activity (oxidation of NADPH by sulfite, 340 nm). The format is biochemical. The procedure: The sulfite reductase activity was measured spectrophotometrically at 340 nm under aerobic conditions by following the oxidation of NADPH by sulfite according to the method of determining enzyme activity of Siegel and others (1973). To 0.9 mL reaction mixture [0.1 M phosphate buffer (pH 7.7) containing 0.5 mM EDTA, 0.5 mM NaHSO3, 1 μM FMN, and 0.2 mM NADPH], 0.1 mL of reductase was added and incubated at 25° C. The activity was determined according to the initial velocity after the addition of reductase and corrected by the slow oxidation of NADPH in the absence of sulfite. One activity unit was defined as the amount of enzyme which catalyzed the oxidation of 1 μmol NADPH within 1 minute reaction 25° C. under the above condition.

Data set [2] in a line: Optimal pH value of the sulfite reductase. It counts as biochemical. The settings on record: 25° C., 5 minutes. The procedure:
Optimal pH value. To 0.9 mL reaction mixture with various pHs (0.2 M citrated buffer: pH 4.0 to 6.0; 0.2 M phosphate buffer: pH 6.0 to 8.0 and 0.2 M bicarbonate buffer: pH 8.0 to 10,0; all buffers containing 0.5 mM EDTA, 0.5 mM NaHSO3, 1 μM FMN, and 0.2 mM NADPH), 0.1 mL of reductase was added and incubated at 25° C. for 5 minutes. The activity was determined from initial velocity and corrected by the oxidation of NADPH in the absence of sulfite according the method of Siegel and others (1973).

Data set [3] can be described thus: Optimal temperature of the sulfite reductase. The settings on record: pH 7.7, 5 minutes. It counts as biochemical. The procedure: Optimal temperature. To 0.9 mL reaction mixture [0.1 M phosphate buffer (pH 7.7) containing 0.5 mM EDTA, 0.5 mM NaHSO3, 1 μM FMN, and 0.2 mM NADPH], 0.1 mL of reductase was added and incubated at various temperatures (5, 10, 15, 20, 25, 30, 35, 40, 45, 50, 55 and 60° C.) for 5 minutes. The activity was determined from initial velocity and corrected by the oxidation of NADPH in the absence of sulfite according the method of Siegel and others (1973).

Data set [4] in a line: Stability of low temperature storage of the enzyme solution. The format is physicochemical. The procedure: The enzyme solution was stored at 4° C. and −20° C., respectively. The residue enzyme activity was determined per constant time interval to test the stability of low-temperature storage.

Consider “sulfite reductase from Saccharomyces cerevisiae: purified sulfite reductase from Saccharomyces cerevisiae (CCRC 22223), molecular weight 358,000”, for which the specific activity was 1.34 units/mg in data set [1] (Table 2, purification steps of the Saccharomyces cerevisiae enzyme) and 1.34 units/mg in data set [1] (purified enzyme, 25° C., pH 7.7). The “optimum pH” value in data set [2] is on record as 7.3. The same substance yielded an optimum temperature in data set [3] of 25 °C. Moreover, the “enzyme activity after storage” value in data set [4] (enzyme solution stored for 2 months at −20° C.) is “nearly not changed”; in data set [4] (enzyme solution stored for 28 days at 4° C.), 77.8%.
